koff and Kd data for 3 molecules are collected here from patent US20180172683A1, “METHODS FOR ANALYZING THE INTERACTION BETWEEN A TARGET PROTEIN AND A LIGAND” (UNIVERSITY OF SOUTHERN CALIFORNIA, priority 2015, published 2018).

A word on the koff: it is the first-order rate constant of dissociation. The low end stands for slow dissociation, the high end for fast dissociation. One may read the Kd as the equilibrium constant for the complex coming apart.

Ends that are not written are not given here.

To fix the notation:
B1: E1, mRNA-peptide fusion in the selection pool (HTSK) (peptide, not shown: a dimerising Fc or GST)
peptide: MIETITIYNYKKAADHFSMSM
modifications: not fully specified; also: C-terminus joined via puromycin to DNA linker and reverse-transcribed mRNA
B2: D1, mRNA-peptide fusion in the selection pool (HTSK) (peptide, not shown: a dimerising Fc or GST)
peptide: MIAISTIYNYKKAADHYAMTK
modifications: not fully specified; also: C-terminus joined via puromycin to DNA linker and reverse-transcribed mRNA
B3: D79, mRNA-peptide fusion in the doped selection pool (HTSK) (peptide, not shown: a dimerising Fc or GST)
peptide: MIDTNVILNYKKAADHFSITM
modifications: not fully specified; also: C-terminus joined via puromycin to DNA linker and reverse-transcribed mRNA

Sequence of B-cell lymphoma extra-large protein (Bcl-xL), first 209 amino acids with N-terminal avitag (Q07817 other isoform, or with tags, fused parts or gaps): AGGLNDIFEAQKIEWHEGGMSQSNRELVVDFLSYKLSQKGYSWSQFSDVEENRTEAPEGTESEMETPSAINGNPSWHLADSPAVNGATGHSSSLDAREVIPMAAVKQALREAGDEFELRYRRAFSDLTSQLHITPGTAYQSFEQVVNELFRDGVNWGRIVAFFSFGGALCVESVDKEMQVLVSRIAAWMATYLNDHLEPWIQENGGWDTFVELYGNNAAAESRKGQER

One assay addresses B-cell lymphoma extra-large protein (Bcl-xL), first 209 amino acids with N-terminal avitag (UniProt Q07817). Kind of assay: HTSK: mRNA-peptide fusion pool on Bcl-xL beads, next-generation sequencing.
B1 showed a koff of 2.5e-06 s⁻¹.
The molecule B2 came in with a koff of 1e-06 s⁻¹.
B3 had a dissociation rate constant (koff) of 3.3e-07 s⁻¹.

The target is the same in the next assay. As to the kind of experiment: HTSK: from on- and off-rates of the mRNA-peptide fusion.
As for B1, the Kd turned out to be 0.023 nM.
B2 yielded a Kd of 0.015 nM.
As for B3, the Kd was 0.0024 nM.
